{"source": "the DeepSol protein solubility set"}
{"assay": "soluble on expression in E. coli; label from the status in PepcDB or PDB records"}
{"sequence": "MTVSDRELEECIRALLDARADSASICPSDVARAVAPDDWRPLMEPVREAAGRLADAGEVEVTQKGAVVDPRSARGPIRIRWTRTD", "soluble on expression in E. coli": "soluble"}
{"sequence": "MLDLFADAEPWQEPLAAGAVILRRFAFNAAEQLIRDINDVASQSPFRQMVTPGGYTMSVAMTNCGHLGWTTHRQGYLYSPIDPQTNKPWPAMPQSFHNLCQRAATAAGYPDFQPDACLINRYAPGAKLSLHQDKDEPDLRAPIVSVSLGLPAIFQFGGLKRNDPLKRLLLEHGDVVVWGGESRLFYHGIQPLKAGFHPLTIDCRYNLTFRQAGKKENLYFQNLYFQ", "soluble on expression in E. coli": "soluble"}
{"sequence": "MAEEHHHHHHHHLEVLFQGPGRPKTHTVGSVAKVEQVKFDATSMHVKPQVAAQQKMVDDGSGEVQVWRIENLELVPVDSKWLGHFYGGDCYLLLYTYLIGEKQHYLLYVWQGSQASQDEITASAYQAVILDQKYNGEPVQIRVPMGKEPPHLMSIFKGRMVVYQGGTSRTNNLETGPSTRLFQVQGTGANNTKAFEVPARANFLNSNDVFVLKTQSCCYLWCGKGCSGDEREMAKMVADTISRTEKQVVVEGQEPANFWMALGGKAPYANTKRLQEENLVITPRLFECSNKTGRFLATEIPDFNQDDLEEDDVFLLDVWDQVFFWIGKHANEEEKKAAATTAQEYLKTHPSGRDPETPIIVVKQGHEPPTFTGWFLAWDPFKWSGIHVVPNLSPLSNN", "soluble on expression in E. coli": "soluble"}
{"sequence": "MGSDKIHHHHHHSLSGRAQTEKPSALVKVGDYRASTDFLNLSAYYQTIRPVTVKVAYVSTYKTQHTIMQKLTLPAGLTVAGNLTTTKHGSYLVPSLQLYLARLSYPALQNSAKANYTLDPGTSAYSPQATISDTTKLRAFKRVAAPDYMPGYSHGDLYIGGAKAALSPVEPTTKSIRITPDGYVEVLKYDTKANAGLGFYQKPVSLAKIVKTRFHDPNRTLYLNHPLASVKTKAITQNGQTRYRLTLKNLHTPQHIAGDPETGTAGTFDSLYSIGGTTYYTFIGYDGVSN", "soluble on expression in E. coli": "not soluble"}
{"sequence": "MGSDKIHHHHHHMTEGISIAVLDNDSWSLRAIARWIDGSSPLYHVIWQTTSAAEAIHRCIYTNDKPNVLLLDMALNDATGISVCTQIRKRTADIGIIGITAYDPERYKTDLALAGGQALIAKENLAHVCNKVLPIVAQGKSAEPNSFPTAKQAHDILAEQPSSFSQIKQLSPRELQVLRLYTQNNNTSEIASQLGISSNTVFSYIHRVSKKIGTKNRSEIIRLCKKYDIL", "soluble on expression in E. coli": "not soluble"}
{"sequence": "SERLTSPPRLMIVSDLDETMVDHHKDPENLALLRFNSLWEDAYRHDSLLVFSTGRAQTMYKKLRKEKPLLTPDVIITSVGTEIAYGNSMVPDDNWVEILNKKWDRGIVQEETSKFPELTLQGETEQRPHKLSFNIDKSKVKAVTKELSPRLEKRGVDVKFIFSGGNAFDVLAKGGGKGQALAYLLKKLKTEGKLPINTLACGDSGNDTELFTIPNVYGVMVSNAQEELLEWYAENAKDNANIIHASERCAGGITQAIGHFKLGPNLSPRDVSDFLECKADNVNPGHEVVKFFLFYERWRRGEVENCTTYTSSLKASCHPSGVFVHPSGAEKSLRDTIDELGKYYGDKKGKKFRVWTDQVLATDTTPGTWIVKLDKWEQTGDERKCCTTTVKFTSKEGEGFVWEHVQQIWSEETEIKDDSNWII", "soluble on expression in E. coli": "not soluble"}
{"sequence": "MGSDKIHHHHHHMATHNHTLTMEWIVDRTRTVYSLPYFYERLNEAINHPRSSIDDVARIIIDDQGLTARILKLANSPMFGFFSKVDSISKAVTIIGTQQLRDLALAASVMDVFKDIPRELMDMVLFWRHSIACGIVARNLAIYLRESNVERFFVAGILHDVGQLVMCTAIPEKVSEVLARNRLESRFLDATERDALGFDHAALGGALLRAWKIPATINEPVAYHHEPGKAEQFSLEVSIIHLADIICQALGYGASGEGGVPLLDPAAWDRLGVPVSILTTIVKQSEPQVEETFAILVEG", "soluble on expression in E. coli": "not soluble"}
{"sequence": "RAETAVQRTEDRYHNLVDTAPIPILLFDRDWKALYANEAAIAFLDADSFTEIAGKKASDFLHPDERDAARKRFQRLMREGVSVPEREYRVMTAEGEVKTATIATAPGYYRGEQVAQAMVYR", "soluble on expression in E. coli": "soluble"}
{"sequence": "MGSDKIHHHHHHMMYPMPSWVYDSVVYQIFPDRFFIGKGKTVEDKKDLYLKRGGVIEKWGVPPRKLPGAQHVKIFYGGDLWGIAEKVDYFEELGINVLYLTPIFLSDTNHKYDTIDYFRVDPQFGGKRAFLHLLRVLHERSMKLILDGVFNHVGSQHPWFKKAKKNDPEYVNRFFLYKDRHRSWFDVGSLPELNVEVEEVKEYILKVVEHYLKLGIDGWRLDCGHDLGPTVNLWINMKVKEFSAEKYLVSEIWTYPAGWDMVDGLMNYNFRNLVLSYVNGETDSIGFHLERAYRETKNIFGCWNMLDSHDTPRLATMVPDRDLRKLAVVLQFTYPGVPLVYYGTEIGLTGGEDPECRATMEWNREKWDVDLFEFYKKMIRLRRTDPGLRFGEFVLLNDSPLAFLRKAPHPLQNTIVVVNPGEEKVLVLSIPDGKIMNTTPLVDVFSGERFHVDGGVVKLPLLARSFRILKPEDLRVGKYRLYKRV", "soluble on expression in E. coli": "not soluble"}
{"sequence": "MLKRLGIVGFGASAIGFINGLIESGKVKDYRITVLERGKDYSHNTISGVRMDGKIFISHGMGGEIYIPLEIQAKTVEFYLKFSGYTPTVDKRVGIVNYLKSFERDGRKIEFGESFSDEEIYKRFYHHGFEPVKSYFFHLGTDILKETNKNIYEYFSSFENIEFLFGTTVEDVEFGPPHRVHTNRGDFEFDELVIAVGRSGHRLMERLKEKYPQLVRPNQFVDIGVRYELPNHVMDPFSDMYEVKVRYRTKTGYICRIFCQNPAGKVTLEKYEDFTTVNGYSDSLHKTENTNFAILVTTRFTEPFKDPTGYGVNLAKLANILAGDKEKVILQTYGDFKEFRRTKRLGRVHPTLDSESYILGDANLVFPSKIRESLVDFVENLEKVIPGASYFDNLLYAVEVKFYTNKFLNDIVEGLHVVGDCSGWTRSIQYATSMGYMRAVGMKIQSLLEHHHHHH", "soluble on expression in E. coli": "not soluble"}
{"sequence": "MAHHHHHHMASADVVSTWVCPICMVSNETQGEFTKDTLPTPICINCGVPADYELTKSSINCSNAIDPNANPRNQFG", "soluble on expression in E. coli": "soluble"}
{"sequence": "MKPTTISLLQKYKQEKKRFATITAYDYSFAKLFADEGLNVMLVGDSLGMTVQGHDSTLPVTVADIAYHTAAVRRGAPNCLLLADLPFMAYATPEQAFENAATVMRAGANMVKIEGGEWLVETVQMLTERAVPVCGHLGLTPQSVNIFGGYKVQGRGDEAGDQLLSDALALEAAGAQLLVLECVPVELAKRITEALAIPVIGIGAGNVTDGQILVMHDAFGITGGHIPKFAKNFLAETGDIRAAVRQYMAEVESGVYPGEEHSFH", "soluble on expression in E. coli": "soluble"}
{"sequence": "SESQEEIIHNIARHLAQIGDEMDHNIQPTLVRQL", "soluble on expression in E. coli": "soluble"}
{"sequence": "MADIGSTYNGPLSSHWFPEELAQWEPDSDPDAPFNRSHVPLEPGRVADRVNANADTDAHLVSLSALNRHTSGVPSQGAPVFYENTFSYWHYTDLMVYWAGSAGEGIIVPPSADVIDASHRNGVPILGNVFFPPTVYGGQLEWLEQMLEQEEDGSFPLADKLLEVADYYGFDGWFINQQTEGADEGTAEAMQAFLVYLQEQKPEGMHIMWYDSMIDTGAIAWQNHLTDRNKMYLQNGSTRVADSMFLNFWWRDQRQSNELAQALGRSPYDLYAGVDVEARGTSTPVQWEGLFPEGEKAHTSLGLYRPDWAFQSSETMEAFYEKELQFWVGSTGNPAETDGQSNWPGMAHWFPAKSTATSVPFVTHFNTGSGAQFSAEGKTVSEQEWNNRSLQDVLPTWRWIQHGGDLEATFSWEEAFEGGSSLQWHGSLAEGEHAQIELYQTELPISEGTSLTWTFKSEHGNDLNVGFRLDGEEDFRYVEGEQRESINGWTQWTLPLDAFAGQTITGLAFAAEGNETGLAEFYIGQLAVGADSEKPAAPNVNVRQYDPDPSGIQLVWEKQSNVHHYRVYKETKHGKELIGTSAGDRIYLEGLVEESKQNDVRLHIEALSETFVPSDARMIDIKSGSF", "soluble on expression in E. coli": "soluble"}
